# Laboratory results from article PMC4331669, “Phosphatidylinositol binding of Saccharomyces cerevisiae Pdr16p represents an essential feature of this lipid transfer protein to provide protection against azole antifungals” (Biochimica et Biophysica Acta. Molecular and Cell Biology …, 2014).
# Positions count from the first letter of the chain named. Names and notes keep the numbering of the source.
# B1: Pdr16p (wild-type, recombinant Pdr16-His) (natural protein, S. cerevisiae, UniProt P53860 1-351, looked up)
# chain: MFKRFSKKKEAPEDPKNLINIDKPIKELPASIAIPKEKPLTGEQQKMYDEVLKHFSNPDLKVYTSEKNKSEDDLKPLEEEEKAWLTRECFLRYLRATKWVLKDCIDRITMTLAWRREFGISHLGEEHGDKITADLVAVENESGKQVILGYENDARPILYLKPGRQNTKTSHRQVQHLVFMLERVIDFMPAGQDSLALLIDFKDYPDVPKVPGNSKIPPIGVGKEVLHILQTHYPERLGKALLTNIPWLAWTFLKLIHPFIDPLTREKLVFDEPFVKYVPKNELDSLYGGDLKFKYNHDVYWPALVETAREKRDHYFKRFQSFGGIVGLSEVDLRGTHEKLLYPVKSESSTV
# notes: Pdr16p (Sfh3p) of Saccharomyces cerevisiae, ORF PDR16 amplified from YEplac181-PDR16 and inserted between NdeI and NotI of pET26; predicted monomer mass 40.7 kDa; The whole ORF was cloned NdeI-NotI into pET26 with a C-terminal 6xHis; No removal of the tag is described; also called Sfh3p; source: E. coli Rosetta, purified (Ni-NTA agarose)
# B2: Pdr16p^(E235A, K267A) (recombinant Pdr16^(E235A, K267A)-His) (natural protein, S. cerevisiae, UniProt P53860 1-351, looked up)
# chain: B1 chain with E235A, K267A
# notes: Same construct as m1 with the two point mutations; source: E. coli Rosetta, purified (Ni-NTA agarose)
# Target: the molecule itself
# Experiment: SEC; Superose 12 10/300 GL, 20 mM PIPES pH 6.8, 250 mM NaCl, 2.7 mM KCl, 0.4 ml/min; BSA and ovalbumin as molecular weight standards; apparent mass about 90 kDa against a predicted monomer of 40.7 kDa
row,Protein,stoichiometry N
1,B1,2
2,B2,2
